# Source: FireProtDB
# B1: Formate dehydrogenase, O13437 (parent)
# chain: MKIVLVLYDAGKHAADEEKLYGCTENKLGIANWLKDQGHELITTSDKEGETSELDKHIPDADIIITTPFHPAYITKERLDKAKNLKLVVVAGVGSDHIDLDYINQTGKKISVLEVTGSNVVSVAEHVVMTMLVLVRNFVPAHEQIINHDWEVAAIAKDAYDIEGKTIATIGAGRIGYRVLERLLPFNPKELLYYDYQALPKEAEEKVGARRVENIEELVAQADIVTVNAPLHAGTKGLINKELLSKFKKGAWLVNTARGAICVAEDVAAALESGQLRGYGGDVWFPQPAPKDHPWRDMRNKYGAGNAMTPHYSGTTLDAQTRYAEGTKNILESFFTGKFDYRPQDIILLNGEYVTKAYGKHDKK
# B2: FMN-dependent NADH:quinone oxidoreductase 1, Q88IY3 (parent)
# chain: MKLLHIDSSILGDNSASRQLSREVVEAWKAADPSVEVVYRDLAADAIAHFSAATLVAAGTPEDVRDAAQAFEAKLSAETLEEFLAADAVVIGAPMYNFTVPTQLKAWIDRVAVAGKTFRYTEAGPQGLCGNKKVVLVSTAGGLHAGQPTGAGHEDFLKVFLGFIGITDLEIVRAHGLAYGPEQRSQAIDAAQAQIASELFAAA
# Variants of: B1
# Conditions: Candida boidinii; whole UniProt chain shown
row,Variant,Tm
1,MKIVLVLYDCGKHAADEEKLYGCTENKLGIANWLKDQGHELITTSDKEGETSELDKHIPDADIIITTPFHPAYITKERLDKAKNLKLVVVAGVGSDHIDLDYINQTGKKISVLEVTGSNVVSVAEHVVMTMLVLVRNFVPAHEQIINHDWEVAAIAKDAYDIEGKTIATIGAGRIGYRVLERLLPFNPKELLYYDYQALPKEAEEKVGARRVENIEELVAQADIVTVNAPLHAGTKGLINKELLSKFKKGAWLVNTARGAICVAEDVAAALESGQLRGYGGDVWFPQPAPKDHPWRDMRNKYGAGNAMTPHYSGTTLDAQTRYAEGTKNILESFFTGKFDYRPQDIILLNGEYVTKAYGKHDKK [A10C],64 °C

# Variants of: B2
# Conditions: Pseudomonas putida (strain ATCC 47054 / DSM 6125 / CFBP 8728 / NCIMB 11950 / KT2440); Fluorescence spectroscopy; whole UniProt chain shown
Variant,Tm,ddG of mutation (higher = less stable)
MKLLHIDSSILGDNSASRQLSREVVEAWKAADPSVEVVYRDLAADPIAHFSAATLVAAGTPEDVRDAAQAFEAKLSAETLEEFLAADAVVIGAPMYNFTVPTQLKAWIDRVAVAGKTFRYTEAGPQGLCGNKKVVLVSTAGGLHAGQPTGAGHEDFLKAFLGFIGITDLEIVRAHGLAYGPEQRSQAIDAARAQIASELFAAA [Q192R A46P V159A],55 °C,-0.8 kcal/mol
MKLLHIDSSILGDNSASRQLSREVVEAWKAADPSVEVVYRDLAADPIPHFSAATLVAAGTPEDVRDAAQAFEAKLSAETLEEFLAADAVVIGAPMYNFTVPTQLKAWIDRVAVAGKTFRYTEAGPQGLCGNKKVVLVSTAGGLHAGQPTGAGHEDFLKAFLGFIGITDLEIVRAHGLAYGPEQRSQAIDAARAQIASELFAAA [Q192R A46P V159A A48P],55 °C,3.3 kcal/mol
MKLLHIDSSILGDNSASRQLSREVVEAWKAADPSVEVVYRDLAADPIAHFSAATLVAAGTPEDVRDAAQAFEAKLSAETLEEFLAADGVVIGAPMYNFTVPTQLKAWIDRVAVAGKTFRYTEAGPQGLSGDKKVVLVSTAGGQHAGQPTGAGHEDFLKAFLGFIGITDLEIVRAHGLDYGPEQRSQAIDAARAQIASELFAAA [Q192R A46P V159A C129S A178D A88G N131D L143Q],44 °C,-1.9 kcal/mol
MKLLHIDSSILGDNSASRQLSREVVEAWKAADPSVEVVYRDLAADPIPHFSAATLVAAGTPEDVRDAAQAFEAKLSAETLEEFLAADAVVIGAPMYNFTVPTQLKAWIDRVAVAGKTFRYTEAGPQGLCGNKKVVLVSTAGGLHAGQPTGAGHEDFLKAFLGFIGITDLEIVRAHGLAHGPEQRSQAIDAARAQIASELFAAA [Q192R A46P V159A A48P Y179H],55 °C,-0.3 kcal/mol
MKLLHIDSSILGDNSASRQLSREVVEAWKAADPSVEVVYRDLAADPIAHFSAATLVAAGTPEDVRDAAQAFEAKLSAETLEEFLAADAVVIGAPMYNFTVPTQLKAWIDRVAVAGKTFRYTEAGPQGLSGNKKVVLVSTAGGLHAGQPTGAGHEDFLKAFLGFIGITDLEIVRAHGLAYGPEQRSQAIDAARAQIASELFAAA [Q192R A46P V159A C129S],51 °C,-0.6 kcal/mol
MKLLHIHSSILGDNSASRQLSREVVEAWKAADPSVEVVYRDLAADPIAHFSAATLVAAGTPEDVRDAAQAFEAKLSAETLEEFLAADAVVIGAPMYNFTVPTQLKAWIDRVAVAGKTFRYTEAGPQGLSGNKKVVLVSTAGGLHAGQPTGAGHEDFLKAFLGFIGITDLEIVRAHGLDYGPEQRSQAIDAARAQIASELFAAA [Q192R A46P V159A C129S D7H A178D],54 °C,1.5 kcal/mol
